Laboratory results reported in publication PMC2784022.

Molecular target: Gal4BD-TR4LBD (mouse) (UniProt P49117)
Assay: two-hybrid

Chain of UniProt P49117 (P49117 178-477): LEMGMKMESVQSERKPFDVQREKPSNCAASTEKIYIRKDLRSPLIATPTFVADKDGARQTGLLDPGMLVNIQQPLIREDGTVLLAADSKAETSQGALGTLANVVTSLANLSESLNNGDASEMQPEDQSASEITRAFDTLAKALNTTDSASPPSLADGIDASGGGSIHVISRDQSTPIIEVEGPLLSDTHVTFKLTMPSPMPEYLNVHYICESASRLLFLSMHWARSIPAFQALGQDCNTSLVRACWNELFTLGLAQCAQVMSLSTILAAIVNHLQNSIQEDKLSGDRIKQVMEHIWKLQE

Molecule	fold enhancement of the two-hybrid reporter with γ-linoleic acid
VP16AD-PCAF (from UniProt Q92831 1-832) (natural protein)	12 fold
VP16AD-RIP140 (natural protein) MTHGEELGSDVHQDSIVLTYLEGLLMHQAAGGSGTAINKKSAGHKEEDQNFNLSGSAFPSCQSNGPTVSTQTYQGSGMLHLKKARLLQSSEDWNAAKRKRLSDSIVNLNVKKEALLAGMVDSVPKGKQDSTLLASLLQSFSSRLQTVALSQQIRQSLKEQGYALSHESLKVEKDLRCYGVASSHLKTLLKKSKTKDQKSGPTLPDVTPNLIRDSFVESSHPAVGQSGTKVMSEPLSCAARLQAVASMVEKRASPAASPKPSVACSQLALLLSSEAHLQQYSREHALKTQNAHQVASERLAAMARLQENGQKDVGSSQLSKGVSGHLNGQARALPASKLVANKNNAATFQSPMGVVPSSPKNTSYKNSLERNNLKQAANNSLLLHLLKSQTIPTPMNGHSQNERASSFESSTPTTIDEYSDNNPSFTDDSSGDESSYSNCVPIDLSCKHRIEKPEAERPVSLENLTQSLLNTWDPKIPGVDIKEDQDTSTNSKLNSHQKVTLLQLLLGHKSEETVERNASPQDIHSDGTKFSPQNYTRTSVIESPSTNRTTPVSTPPLYTASQAESPINLSQHSLVIKWNSPPYACSTPASKLTNTAPSHLMDLTKGKESQAEKPAPSEGAQNSATFSASKLLQNLAQCGLQSSGPGEEQRPCKQLLSGNPDKPLGLIDRLNSPLLSNKTNAAEESKAFSSQPAGPEPGLPGCEIENLLERRTVLQLLLGNSSKGKNEKKEKTPARDEAPQEHSERAANEQILMVKIKSEPCDDFQTHNTNLPLNHDAKSAPFLGVTPAIHRSTAALPVSEDFKSEPASPQDFSFSKNGLLSRLLRQNQESYPADEQDKSHRNSELPTLESKNICMVPKKRKLYTEPLENPFKKMKNTAVDTANHHSGPEVLYGSLLHQEELKFSRNELDYKYPAGHSSASDGDHRSWARESKSFNVLKQLLLSENCVRDLSPHRSDSVPDTKKKGHKNNAPGSKPEFGISSLNGLMYSSPQPGSCVTDHRTFSYPGMVKTPLSPPFPEHLGCVGSRPEPGLLNGCSVPGEKGPIKWVIADMDKNEYEKDSPRLTKTNPILYYMLQKGGGNSVTTQETQDKDIWREPASAESLSQVTVKEELLPAAETKASFFNLRSPYNSHMGNNASRPHSTNGEVYGLLGNALTIKKESE	23 fold
